According to paper PMC3093366, “A Component of the Xanthomonadaceae Type IV Secretion System Combines a VirB7 Motif with a N0 Domain Found in Outer Membrane Transport Proteins” (PLoS Pathogens, 2011):

Columns and labels:
[1] = biological target: VirB7_(XAC2622_24–139) (Xanthomonas citri subsp. citri strain 306); experiment: NMR 15N relaxation (rotational correlation time); 15N T1 and T2 of 15N-VirB7_(XAC2622_24–139) at 800 µM, 40°C, 600 MHz
VirB7_(XAC2622_51–134) = biological target: T1, VirB7_(XAC2622_51–134) (Xanthomonas citri subsp. citri strain …, UniProt A0AAI7ZGD2 51-134, 15N isotope labelled in the NMR titration); experiment: NMR titration; 15N-labeled VirB7_(XAC2622_51–134) (200 µM) titrated with unlabeled VirB7_(XAC2622_38–52) peptide (0 to 740 µM); 15N-HSQC; conditions: both partners purified
T1 construct: also called VirB7_(XAC2622) globular domain; N0 domain; source: E. coli BL21(DE3)RP or BL21(DE3)Star, purified (Q-sepharose, Superdex 75)
T1 sequence: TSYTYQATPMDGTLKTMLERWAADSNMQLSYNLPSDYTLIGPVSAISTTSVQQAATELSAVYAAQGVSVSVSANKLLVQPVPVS

VirB9_(XAC2620_34–255) = biological target: T2, VirB9_(XAC2620_34–255) (Xanthomonas citri subsp. citri strain …, UniProt A0AAI8ESY0 34-255); experiment: other fluorescence titration; intrinsic fluorescence; 0.1 µM aliquots of VirB7_(XAC2622_24–139_His) added to 1 µM VirB9_(XAC2620_34–255) up to 2.2 µM; 5 mM sodium acetate pH 5.0, 25°C, excitation 280 nm, emission 334–342 nm; conditions: both partners purified
T2 construct: also called full length VirB9; full-length VirB9_(XAC2620) minus the first 33 residues
T2 sequence: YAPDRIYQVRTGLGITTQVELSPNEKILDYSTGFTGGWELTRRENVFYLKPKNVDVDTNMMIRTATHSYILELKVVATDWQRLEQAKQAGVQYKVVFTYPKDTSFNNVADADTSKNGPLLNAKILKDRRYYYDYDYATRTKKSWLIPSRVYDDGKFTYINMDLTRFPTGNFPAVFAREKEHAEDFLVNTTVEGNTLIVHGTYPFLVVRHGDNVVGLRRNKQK

VirB7_(XAC2622_24–139) (from UniProt A0AAI7ZGD2 24-139) (domain or fragment)
stoichiometry N [1]: 2

B1: VirB7_(XAC2622_38–52) (peptide)
peptide: NHFDEAPTEIPLYTS
notes: also called unlabeled peptide encompassing residues 38–52 from the N-terminal region; source: synthetic peptide, bought: EZBiolab
binding result (VirB7_(XAC2622_51–134)): binds

B2: VirB7_(XAC2622_24–139_His) (domain or fragment)
chain: TKPAPDFGGRWKHVNHFDEAPTEIPLYTSYTYQATPMDGTLKTMLERWAADSNMQLSYNLPSDYTLIGPVSAISTTSVQQAATELSAVYAAQGVSVSVSANKLLVQPVPVSSGAKL
notes: Form with the pET28a N-terminal His-tag not removed; used in the fluorescence titration; not shown: His-tag, N-terminal, kept
Kd (VirB9_(XAC2620_34–255)): ~40 nM
stoichiometry N (VirB9_(XAC2620_34–255)): 1 VirB7:VirB9
